A value given as a limit tells only on which side of the number the result lay.

The results in this text go back to US20130095092A1.

For the assay, the target named is Mannose 6-phosphate receptor (M6P receptor) on human MPS IIIB (NaGlu deficient) fibroblasts (human), P11717. The assay is described as follows: cell-based or functional assay.
Mannose 6-phosphate receptor (M6P receptor) on human MPS IIIB (NaGlu deficient) fibroblasts (human), P11717, sequence (P11717 41-2491): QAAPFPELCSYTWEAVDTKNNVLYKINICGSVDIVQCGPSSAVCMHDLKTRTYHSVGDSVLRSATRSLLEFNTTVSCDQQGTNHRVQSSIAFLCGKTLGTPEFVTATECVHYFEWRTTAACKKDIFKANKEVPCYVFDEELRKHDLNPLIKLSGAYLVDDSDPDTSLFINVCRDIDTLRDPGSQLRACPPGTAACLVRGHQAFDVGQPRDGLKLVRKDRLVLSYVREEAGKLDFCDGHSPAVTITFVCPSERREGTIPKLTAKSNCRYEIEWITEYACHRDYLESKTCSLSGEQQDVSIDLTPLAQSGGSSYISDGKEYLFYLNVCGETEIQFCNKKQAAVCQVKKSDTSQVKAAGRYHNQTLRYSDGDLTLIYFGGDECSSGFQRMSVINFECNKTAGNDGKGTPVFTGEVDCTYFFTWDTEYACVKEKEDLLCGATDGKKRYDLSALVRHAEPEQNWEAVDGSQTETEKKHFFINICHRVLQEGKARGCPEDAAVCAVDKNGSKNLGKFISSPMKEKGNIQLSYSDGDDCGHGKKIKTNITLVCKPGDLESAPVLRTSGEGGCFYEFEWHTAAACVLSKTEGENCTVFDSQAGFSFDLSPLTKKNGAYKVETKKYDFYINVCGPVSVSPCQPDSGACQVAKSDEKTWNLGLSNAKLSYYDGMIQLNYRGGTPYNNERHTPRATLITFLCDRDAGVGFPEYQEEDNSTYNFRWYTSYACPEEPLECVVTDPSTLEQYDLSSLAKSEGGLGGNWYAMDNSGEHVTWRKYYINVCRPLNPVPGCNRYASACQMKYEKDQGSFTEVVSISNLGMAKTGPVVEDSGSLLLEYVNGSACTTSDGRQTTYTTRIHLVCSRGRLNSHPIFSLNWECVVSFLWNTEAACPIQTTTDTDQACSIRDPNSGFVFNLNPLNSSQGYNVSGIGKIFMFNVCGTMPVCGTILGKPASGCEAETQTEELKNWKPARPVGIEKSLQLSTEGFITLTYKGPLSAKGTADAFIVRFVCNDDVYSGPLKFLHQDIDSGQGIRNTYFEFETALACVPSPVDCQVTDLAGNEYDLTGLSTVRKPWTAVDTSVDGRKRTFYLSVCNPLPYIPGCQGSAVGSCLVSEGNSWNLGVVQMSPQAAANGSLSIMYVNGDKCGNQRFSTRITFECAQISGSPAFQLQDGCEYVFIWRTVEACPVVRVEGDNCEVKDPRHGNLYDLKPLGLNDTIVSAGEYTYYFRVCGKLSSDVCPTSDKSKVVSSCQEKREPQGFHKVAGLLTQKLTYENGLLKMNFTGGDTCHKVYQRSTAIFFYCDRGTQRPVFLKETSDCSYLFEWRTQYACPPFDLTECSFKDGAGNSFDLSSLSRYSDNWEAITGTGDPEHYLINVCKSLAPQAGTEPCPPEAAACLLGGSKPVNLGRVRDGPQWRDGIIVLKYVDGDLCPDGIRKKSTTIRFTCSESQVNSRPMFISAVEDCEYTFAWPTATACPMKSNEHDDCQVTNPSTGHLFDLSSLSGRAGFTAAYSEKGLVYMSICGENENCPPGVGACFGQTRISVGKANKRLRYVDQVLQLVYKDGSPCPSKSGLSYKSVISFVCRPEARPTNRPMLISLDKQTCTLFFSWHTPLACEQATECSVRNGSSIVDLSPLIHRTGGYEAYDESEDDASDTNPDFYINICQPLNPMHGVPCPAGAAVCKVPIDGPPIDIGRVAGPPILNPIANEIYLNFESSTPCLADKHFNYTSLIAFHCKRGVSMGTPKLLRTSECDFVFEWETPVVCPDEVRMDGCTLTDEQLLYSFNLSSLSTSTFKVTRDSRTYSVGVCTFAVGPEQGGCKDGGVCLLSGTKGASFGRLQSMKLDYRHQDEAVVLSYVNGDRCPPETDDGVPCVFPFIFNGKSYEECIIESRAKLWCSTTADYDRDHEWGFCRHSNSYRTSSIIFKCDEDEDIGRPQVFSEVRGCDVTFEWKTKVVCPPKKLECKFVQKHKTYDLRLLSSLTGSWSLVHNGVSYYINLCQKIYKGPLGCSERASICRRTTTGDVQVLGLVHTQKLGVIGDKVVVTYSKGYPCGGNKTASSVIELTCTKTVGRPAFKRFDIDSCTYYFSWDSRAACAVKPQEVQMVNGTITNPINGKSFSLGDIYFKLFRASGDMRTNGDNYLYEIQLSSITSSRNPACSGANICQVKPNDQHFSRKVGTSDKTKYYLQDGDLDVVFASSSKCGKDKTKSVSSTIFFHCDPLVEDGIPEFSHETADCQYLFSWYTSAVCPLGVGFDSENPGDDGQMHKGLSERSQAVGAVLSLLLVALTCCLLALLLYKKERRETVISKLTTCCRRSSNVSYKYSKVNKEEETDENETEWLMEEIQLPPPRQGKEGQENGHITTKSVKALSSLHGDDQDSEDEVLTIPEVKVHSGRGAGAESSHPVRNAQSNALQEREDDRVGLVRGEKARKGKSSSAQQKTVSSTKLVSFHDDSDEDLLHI

B1: recombinant human N-acetyl-alpha-D-glucosaminidase (rhNaGlu) produced from a transgenic avian (Gallus), P54802 24-743 (enzyme)
chain: DEAREAAAVRALVARLLGPGPAADFSVSVERALAAKPGLDTYSLGGGGAARVRVRGSTGVAAAAGLHRYLRDFCGCHVAWSGSQLRLPRPLPAVPGELTEATPNRYRYYQNVCTQSYSFVWWDWARWEREIDWMALNGINLALAWSGQEAIWQRVYLALGLTQAEINEFFTGPAFLAWGRMGNLHTWDGPLPPSWHIKQLYLQHRVLDQMRSFGMTPVLPAFAGHVPEAVTRVFPQVNVTKMGSWGHFNCSYSCSFLLAPEDPIFPIIGSLFLRELIKEFGTDHIYGADTFNEMQPPSSEPSYLAAATTAVYEAMTAVDTEAVWLLQGWLFQHQPQFWGPAQIRAVLGAVPRGRLLVLDLFAESQPVYTRTASFQGQPFIWCMLHNFGGNHGLFGALEAVNGGPEAARLFPNSTMVGTGMAPEGISQNEVVYSLMAELGWRKDPVPDLAAWVTSFAARRYGVSHPDAGAAWRLLLRSVYNCSGEACRGHNRSPLVRRPSLQMNTSIWYNRSDVFEAWRLLLTSAPSLATSPAFRYDLLDLTRQAVQELVSLYYEEARSAYLSKELASLLRAGGVLAYELLPALDEVLASDSRFLLGSWLEQARAAAVSEAEADFYEQNSRYQLTLWGPEGNILDYANKQLAGLVANYYTPRWRLFLEALVDSVAQGIPFQQHQFDKNVFQLEQAFVLSKQRYPSQPRGDTVDLAKKIFLKYYPRWVAGSW
modifications: here or on the partner: glycosylated; glycans carry mannose-6-phosphate (3.2 moles of M6P per mole of protein), glycosylation sites not stated
In the case of B1, the M6P inhibition assay: concentration of free M6P monosaccharide that inhibits uptake of 30 µg/mL rhNaGlu into MPS IIIB fibroblasts (enzymatic activity) is greater than 0.03 mM; the M6P inhibition assay: inhibition of cellular uptake of 30 µg/mL rhNaGlu into MPS IIIB fibroblasts by 1 mM free M6P (% inhibition of uptake) is greater than 90; the NaGlu activity in MPS IIIB fibroblasts after 24 h uptake of rhNaGlu, relative to wild-type fibroblasts (% of wild-type activity) was found to be 50.
